Substitutions are numbered along the chain they refer to.
B1: insulin-Fc fusion protein of SEQ ID NO: 22 (insulin polypeptide SEQ ID NO: 5, linker SEQ ID NO: 9, canine IgGA Fc fragment SEQ ID NO: 11) (Fc fusion)
chain: FVNQHLCGSDLVEALALVCGERGFFYTDPTGGGPRRGIVEQCCHSICSLYQLENYCNGGGGAGGGGRCTDTPPCPVPEPLGGPSVLIFPPKPKDILRITRTPEVTCVVLDLGREDPEVQISWFVDGKEVHTAKTQSREQQFNGTYRVVSVLPIEHQDWLTGKEFKCRVNHIDLPSPIERTISKARGRAHKPSVYVLPPSPKELSSSDTVSITCLIKDFYPPDIDVEWQSNGQQEPERKHRMTPPQLDEDGSYFLYSKLSVDKSRWQQGDPFTCAVMHETLQNHYTDLSLSHSPG
notes: Disulfide-linked homodimer made in HEK293 cells
B2: insulin-Fc fusion protein of SEQ ID NO: 26 (insulin polypeptide SEQ ID NO: 5, linker SEQ ID NO: 9, canine IgGB Fc fragment SEQ ID NO: 12) (Fc fusion)
chain: FVNQHLCGSDLVEALALVCGERGFFYTDPTGGGPRRGIVEQCCHSICSLYQLENYCNGGGGAGGGGDCPKCPAPEMLGGPSVFIFPPKPKDTLLIARTPEVTCVVVDLDPEDPEVQISWFVDGKQMQTAKTQPREEQFNGTYRVVSVLPIGHQDWLKGKQFTCKVNNKALPSPIERTISKARGQAHQPSVYVLPPSREELSKNTVSLTCLIKDFFPPDIDVEWQSNGQQEPESKYRTTPPQLDEDGSYFLYSKLSVDKSRWQRGDTFICAVMHEALHNHYTQESLSHSPG
notes: Disulfide-linked homodimer made in HEK293 cells; 93% homodimer
B3: insulin-Fc fusion protein of SEQ ID NO: 29 (SEQ ID NO: 26 with the mutation cNg-NB139-S; canine IgGB Fc fragment SEQ ID NO: 15) (Fc fusion)
chain: B2 chain with N139S
notes: Non-glycosylated homodimer made in HEK293 cells; 98.3% homodimer; also called cNg-S
B4: insulin-Fc fusion protein of SEQ ID NO: 31 (SEQ ID NO: 26 with des hinge D and the mutation cNg-NB138-K; canine IgGB Fc fragment SEQ ID NO: 16) (Fc fusion)
chain: FVNQHLCGSDLVEALALVCGERGFFYTDPTGGGPRRGIVEQCCHSICSLYQLENYCNGGGGAGGGGCPKCPAPEMLGGPSVFIFPPKPKDTLLIARTPEVTCVVVDLDPEDPEVQISWFVDGKQMQTAKTQPREEQFKGTYRVVSVLPIGHQDWLKGKQFTCKVNNKALPSPIERTISKARGQAHQPSVYVLPPSREELSKNTVSLTCLIKDFFPPDIDVEWQSNGQQEPESKYRTTPPQLDEDGSYFLYSKLSVDKSRWQRGDTFICAVMHEALHNHYTQESLSHSPG
notes: Non-glycosylated homodimer made in HEK293 cells; 98.1% homodimer; also called cNg-K with des hinge D

What follows are binders tested against T1, human insulin receptor (on human IM-9 cells) (human, UniProt P06213 28-1382) (assay: competition with biotinylated RHI on human IM-9 cells, flow cytometry, 4 C).
T1 construct: whole, on cells; Endogenous receptor on IM-9 cells; the mature receptor is a processed alpha2-beta2 tetramer from one precursor; also called IR
Description: Biotinylated-RHI was diluted in FACS staining medium to a concentration of 1.25 μg/mL. 40 μL of the serially diluted test compound and 8 μL of 1.25 μg/mL Biotin-RHI were added into each well of a V bottom microtiter plate, mixed by slow vortexing, and placed on ice. 40 μL of an IM-9 cell suspension (8×10^6 cells/mL) was then added to each well by multichannel pipette, mixed again gently and incubated on ice for 30 min to allow competitive binding on the insulin receptor on IM-9 cells. Cells were then washed twice with 275 μL of ice-cold FACS wash buffer (HBSS/2 mM EDTA/0.1% Na-azide+0.5% horse serum) by centrifuging the V-bottom plate at 3000 rpm for 3 min and aspirating the supernatant. Cells were then resuspended in 40 μL of FACS staining medium containing 1:100 diluted Streptavidin-PE (Life Technologies) for 20 min on ice. Cells were then washed once with 275 μL of ice-cold FACS buffer and finally fixed with 3% paraformaldehyde for 10 min at room temp. Cells were then washed once with 275 μL of ice-cold FACS buffer and resuspended in 250 μl of FACS buffer for analysis.
The V-bottom plates containing cells were then analyzed on a Guava 8-HT flow cytometer (Millipore). Biotinylated-RHI binding to insulin receptor was quantitated by the median fluorescence intensity (MFI) of the cells on the FACS FL-2 channel for each concentration of the test compound. Control wells were labeled only with biotinylated-RHI and were used to calculate the percent (%) inhibition resulting from each test compound concentration. The % inhibition by test compounds of biotinylated-RHI binding on IM-9 cells was plotted against log concentrations of the test compound, and the resulting IC50 values were calculated using GraphPad Prism (GraphPad Software, La Jolla, CA) for the test compounds. Lower IC50 values of the test compound therefore indicate greater levels of biotinylated-RHI inhibition at lower concentrations indicating stronger binding of the insulin-Fc fusion protein to the insulin receptor. A control compound, such as unlabeled recombinant human insulin (RHI) was also used as an internal standard to generate an RHI IC50 against which a given compound IC50 could be ratioed (IC50(compound)/IC50(RHI)). Lower IC50 ratios have more similar binding to RHI (stronger binding to insulin receptor), while higher IC50 ratios have weaker binding to the insulin receptor relative to RHI.

T1 sequence (P06213 28-1382): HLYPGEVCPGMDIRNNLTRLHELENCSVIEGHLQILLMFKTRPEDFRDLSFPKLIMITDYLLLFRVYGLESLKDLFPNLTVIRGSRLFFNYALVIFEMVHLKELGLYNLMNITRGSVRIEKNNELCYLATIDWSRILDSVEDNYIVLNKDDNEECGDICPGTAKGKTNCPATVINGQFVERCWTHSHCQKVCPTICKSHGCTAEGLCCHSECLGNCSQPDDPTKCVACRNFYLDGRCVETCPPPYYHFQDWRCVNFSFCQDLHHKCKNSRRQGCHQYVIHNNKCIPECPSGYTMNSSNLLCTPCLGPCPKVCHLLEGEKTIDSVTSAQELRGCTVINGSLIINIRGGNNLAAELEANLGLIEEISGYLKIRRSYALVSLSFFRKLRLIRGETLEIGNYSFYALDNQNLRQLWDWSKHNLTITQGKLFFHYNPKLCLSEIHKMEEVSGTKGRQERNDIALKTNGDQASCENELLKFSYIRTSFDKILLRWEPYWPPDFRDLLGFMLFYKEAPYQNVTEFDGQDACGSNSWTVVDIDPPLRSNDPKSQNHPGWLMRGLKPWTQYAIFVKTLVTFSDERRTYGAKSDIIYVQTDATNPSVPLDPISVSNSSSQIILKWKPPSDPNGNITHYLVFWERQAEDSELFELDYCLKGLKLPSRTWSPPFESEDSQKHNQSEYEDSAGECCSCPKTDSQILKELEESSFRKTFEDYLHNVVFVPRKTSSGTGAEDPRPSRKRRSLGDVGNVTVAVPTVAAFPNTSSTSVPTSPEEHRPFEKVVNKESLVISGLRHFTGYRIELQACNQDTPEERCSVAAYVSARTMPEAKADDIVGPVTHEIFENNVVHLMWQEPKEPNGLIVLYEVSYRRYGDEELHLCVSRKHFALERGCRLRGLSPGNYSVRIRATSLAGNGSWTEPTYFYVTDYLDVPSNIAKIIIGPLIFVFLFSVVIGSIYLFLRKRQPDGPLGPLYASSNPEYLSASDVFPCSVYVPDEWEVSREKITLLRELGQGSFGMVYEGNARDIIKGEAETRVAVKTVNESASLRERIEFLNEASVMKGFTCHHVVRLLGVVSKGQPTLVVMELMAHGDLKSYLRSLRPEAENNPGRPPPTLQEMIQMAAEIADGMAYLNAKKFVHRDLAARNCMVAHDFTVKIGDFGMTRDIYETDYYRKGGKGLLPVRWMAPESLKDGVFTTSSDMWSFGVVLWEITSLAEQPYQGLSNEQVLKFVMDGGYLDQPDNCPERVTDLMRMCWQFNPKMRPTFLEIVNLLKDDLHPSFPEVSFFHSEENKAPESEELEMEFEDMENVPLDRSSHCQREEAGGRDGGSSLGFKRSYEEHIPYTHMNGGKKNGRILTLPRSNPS

Point of comparison: B4, IC50 147 nM. Against it:
- B1 — 19-fold higher, 2730 nM
- B2 — 5.2-fold lower, 28 nM
- B3 — within 1.5-fold, 145 nM

Reference: US20250163121A1 (AKSTON BIOSCIENCES, published 2025)
